Laboratory results as given in patent US6867008 (NEW ENGLAND MEDICAL CENTER HOSPITALS, dated 2005).
Blank lines part the entries; values can stand above or below the binder they belong to.

Assays:
[1] = target: T1, mERβ1-516/GalBD (mouse, UniProt P04386 1-147; O08537 46-217); assay: yeast two-hybrid, HIS and β-galactosidase reporters
T1 construct: Expression in Y190 confirmed by Western blot

[2] = target: T2, mERβ1-622/GalBD (mouse, UniProt P04386 1-147; O08537 46-252); assay: as above
T2 construct: about the first 207 codons of the short variant ORF (my reading)

[3] = target: T3, hERα/BD (human estrogen receptor alpha fused to the Gal4 DNA binding domain) (human, UniProt P04386 1-147; P03372 1-595); assay: yeast two-hybrid
T3 construct: also called ERα/GalBD; hERα/GalBD
Description: Screening of the ovine library yielded clone EC1. […] Yeast strain Y190 was transformed with mERβ/BD in combination with EC1/AD and GalAD respectively and plated on Sc-His (synthetic complete medium, minus histidine) and YPD (yeast extract, peptone, dextrose) plates (FIG. 1A). […] Yeast strain Y190 was also transformed with human ER alpha (hERα)/BD in combination with EC1/AD, hERα/BD and Trip 1/AD and plated on Sc-His and YPD plates. Positive interaction of hERα/BD with […] and Trip 1/GalAD was seen only in the presence of estrogen. Colony lift β-Galactosidase assays were also performed with yeasts from the YPD plate in both FIG. 1A and 1B. TIF2 and TRIP1 homologs were found previously by screening a human heart library with mERβ as bait. […] This implies a new function for ER beta that may be separated from its estrogen binding function.

[4] = target: T4, [35S]hERα (in vitro translated human estrogen receptor alpha) (human, UniProt P03372 1-595, [35S]methionine labelled); assay: GST pull-down, SDS-PAGE and autoradiography
T4 construct: also called [^35S] labeled hERα; ER alpha
T4 sequence (looked up): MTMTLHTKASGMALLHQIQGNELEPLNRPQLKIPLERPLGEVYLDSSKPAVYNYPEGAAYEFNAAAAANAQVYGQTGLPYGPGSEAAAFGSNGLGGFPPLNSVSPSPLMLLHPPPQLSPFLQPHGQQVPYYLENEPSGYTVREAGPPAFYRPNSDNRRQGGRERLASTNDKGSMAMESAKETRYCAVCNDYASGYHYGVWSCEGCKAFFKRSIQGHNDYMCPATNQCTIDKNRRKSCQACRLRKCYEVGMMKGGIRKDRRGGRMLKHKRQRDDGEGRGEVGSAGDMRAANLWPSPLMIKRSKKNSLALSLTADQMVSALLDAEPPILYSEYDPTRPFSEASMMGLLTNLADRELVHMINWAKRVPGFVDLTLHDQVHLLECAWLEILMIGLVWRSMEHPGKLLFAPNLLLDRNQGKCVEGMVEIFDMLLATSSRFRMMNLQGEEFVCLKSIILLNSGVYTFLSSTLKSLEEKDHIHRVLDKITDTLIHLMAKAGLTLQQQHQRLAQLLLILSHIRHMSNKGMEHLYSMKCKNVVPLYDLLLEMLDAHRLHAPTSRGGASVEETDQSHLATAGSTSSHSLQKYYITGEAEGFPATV
Procedure: Recombinant proteins were incubated at 4° in suspension buffer (20 mM Tris pH7.4, 137 mM NaCl, 2 mM EDTA pH7.4, 1% TritonX-100, 10% Glycerol, 25 mM β-glycerolphosphate, 1 mM Na vanadate, […], 1 mM PMSF) with either one of the GST fusion proteins immobilized on glutathione-Sepharose beads for 1 hour. Beads were then washed three times in suspension buffer, boiled 5 minutes in SDS sample buffer, and associated proteins resolved by SDS-PAGE. Labeled protein bands in gels were then visualized by autoradiography.
[^35S] labeled mERβ was incubated with GST-beads (Lane 2) and GST-EC1 beads (Lane 3) followed by SDS-PAGE and autoradiography. […] In the complementary experiment (FIG. 4B), [^35S]-labeled hsMAD2 was incubated with GST beads (Lane 2) and GST-mERP beads (Lane 3) followed by SDS-PAGE and autoradiography. […] MAD2 input (FIG. 4B). GST-fusion protein interaction studies were also done with hERα. [^35S] labeled hERα was incubated with GST-mERβ (Lane 2, positive control), GST-beads (Lane 3) and GST-EC1 beads followed by SDS-PAGE and autoradiography.

binding result [1]: no binding
binding result [2]: binds
binding result [3]: no binding
B1: EC1/AD (ovine clone EC1, MAD2 homolog, fused to the Gal4 activating domain, vector pGAD10) (other, not shown: large carriers)
chain: REQGITLRGSAEIVAEFFSFGINSILYQRGIYPSETFTRVQKYGLTLLVTTDPELIKYLNNVVDQLKEWLYKCSVQKLVVVISNIESGEVLERWQFDIECDKTAKDDSAPREKSQKAIQDEIRSVIRQITATVTFLPLLEVSCSFDLLIYTDKDLVVPEKWEESGPQFITNSEEVRLRSFTTTIHKVNSMVAYKIPVHD
notes: Library clone from ovine pulmonary artery endothelial cells; also called EC1/GalAD

binding result [4]: no binding
B2: GST-EC1 (other)
chain: B1 chain
notes: Immobilised on glutathione-Sepharose beads; also called GST-MAD2 clone; GST MAD2; not shown: glutathione S-transferase of vector pGEX-4T-1
